# Data published in IntAct's records for PubMed 19017275.
# B1: Phosphothreonine lyase OspF (Shigella flexneri), Q8VSP9 (parent)
# chain: MPIKKPCLKLNLDSLNVVRSEIPQMLSANERLKNNFNILYNQIRQYPAYYFKVASNVPTYSDICQSFSVMYQGFQIVNHSGDVFIHACRENPQSKGDFVGDKFHISIAREQVPLAFQILSGLLFSEDSPIDKWKITDMNRVSQQSRVGIGAQFTLYVKSDQECSQYSALLLHKIRQFIMCLESNLLRSKIAPGEYPASDVRPEDWKYVSYRNELRSDRDGSERQEQMLREEPFYRLMIE
# partner: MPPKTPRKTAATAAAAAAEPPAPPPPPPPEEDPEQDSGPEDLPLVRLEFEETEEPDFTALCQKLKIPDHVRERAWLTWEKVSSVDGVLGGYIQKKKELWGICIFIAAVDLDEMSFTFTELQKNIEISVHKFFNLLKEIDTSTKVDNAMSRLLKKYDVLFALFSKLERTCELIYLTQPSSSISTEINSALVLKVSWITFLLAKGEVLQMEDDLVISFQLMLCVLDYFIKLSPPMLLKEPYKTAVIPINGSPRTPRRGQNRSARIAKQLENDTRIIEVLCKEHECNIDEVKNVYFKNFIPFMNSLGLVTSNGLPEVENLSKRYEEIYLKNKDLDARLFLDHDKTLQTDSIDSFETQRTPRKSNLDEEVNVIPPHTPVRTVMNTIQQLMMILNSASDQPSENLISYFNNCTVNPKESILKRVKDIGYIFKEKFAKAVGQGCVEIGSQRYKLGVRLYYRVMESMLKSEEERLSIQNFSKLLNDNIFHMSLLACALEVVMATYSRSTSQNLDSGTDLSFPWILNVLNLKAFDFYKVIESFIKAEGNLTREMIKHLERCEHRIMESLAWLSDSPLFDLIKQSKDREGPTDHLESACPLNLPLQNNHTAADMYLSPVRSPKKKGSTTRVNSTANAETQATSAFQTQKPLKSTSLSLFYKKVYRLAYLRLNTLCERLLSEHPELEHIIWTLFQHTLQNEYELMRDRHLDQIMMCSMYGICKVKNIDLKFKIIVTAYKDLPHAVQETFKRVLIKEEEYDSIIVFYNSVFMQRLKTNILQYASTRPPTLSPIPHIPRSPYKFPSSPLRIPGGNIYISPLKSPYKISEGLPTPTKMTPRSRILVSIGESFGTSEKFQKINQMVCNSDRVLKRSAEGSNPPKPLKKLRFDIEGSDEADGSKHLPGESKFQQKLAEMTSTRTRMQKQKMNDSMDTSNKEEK
# Variants of: B1
# Conditions: with rb_human RB1, P06400
row,Variant,effect of a mutation on the interaction
1,I178R;C180G;E182A,decreasing interaction strength
